Assay results reported in patent publication US20240337665A1 (INDI MOLECULAR, published 2024).
Bridge positions count the residues as written; N and C are the ends. Square brackets hold non-standard residues; d marks the D form. Ends that are not written are not given here. I, II: the chains in the order shown. Lys(N3) = [N-]=[N+]=NCCCC[C@H](N)C(=O)O; Pra = C#CC[C@H](N)C(=O)O

Tests used:
[1] = target: T1, Plasmodium falciparum Histidine Rich Protein-2 (Plasmodium falciparum); assay: assay not described; biligand cy(YKYYR)-linker-cy(GWNVDL)
T1 construct: the construct used in the assay is not described; also called Pf.HRP-2
T1 chain: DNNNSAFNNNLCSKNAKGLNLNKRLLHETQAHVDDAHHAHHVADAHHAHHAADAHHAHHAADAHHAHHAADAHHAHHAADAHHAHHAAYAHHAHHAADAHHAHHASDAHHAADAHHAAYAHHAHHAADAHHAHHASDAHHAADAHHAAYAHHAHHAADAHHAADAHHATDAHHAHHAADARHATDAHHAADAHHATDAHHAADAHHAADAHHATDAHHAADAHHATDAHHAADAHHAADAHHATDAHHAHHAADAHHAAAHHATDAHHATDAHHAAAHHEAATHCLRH

[2] = target: T1, Plasmodium falciparum Histidine Rich …; assay: assay not described
[3] = target: T2, Full-length His-tagged IL-17F protein (ab167911, Abcam) (human, UniProt Q96PD4 31-163); assay: sandwich ELISA; biotinylated macrocycle on NeutrAvidin plate, His-tagged IL-17F titrated
T2 construct: Bought protein, called full-length and His-tagged; also called human IL-17F protein; recombinant human IL-17F protein; not shown: His tag
T2 sequence: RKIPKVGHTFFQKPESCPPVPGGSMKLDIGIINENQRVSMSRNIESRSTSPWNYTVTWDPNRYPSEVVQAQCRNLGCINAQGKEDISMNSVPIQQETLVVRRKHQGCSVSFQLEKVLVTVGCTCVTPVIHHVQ

[4] = target: T2, Full-length His-tagged IL-17F protein …; assay: point ELISA; macrocycle on NeutrAvidin plate, His-tagged IL-17F against His-tagged IL-17A at 100 nM
[5] = target: T2, Full-length His-tagged IL-17F protein …; assay: not stated in the sentence (same number as the ELISA EC50 of paragraph 504); monoligand Cy(RSYNKX1X2), not the biligand
[6] = target: T2, Full-length His-tagged IL-17F protein …; assay: fluorescence polarization in solution; IL-17F titrated against 5-FITC-tagged macrocycle; 5-FITC-tagged LF2, fluorescence polarization in solution
[7] = target: T1, Plasmodium falciparum Histidine Rich …; assay: assay not described; monoligand cy(GWNVDL)
[8] = target: T1, Plasmodium falciparum Histidine Rich …; assay: assay not described; monoligand Cy(YKYYR)
[9] = target: T2, Full-length His-tagged IL-17F protein …; assay: fluorescence polarization in solution; IL-17F titrated against 5-FITC-tagged macrocycle; 5-FITC-tagged LF1, fluorescence polarization in solution
[10] = target: T2, Full-length His-tagged IL-17F protein …; assay: point ELISA; surface-immobilized macrocycle with IL-17F, IL-17A or no protein
[11] = target: T2, Full-length His-tagged IL-17F protein …; assay: point ELISA; macrocycle on NeutrAvidin plate, His-tagged IL-17F against His-tagged IL-17A
[12] = target: T3, His6-PEG3-SQFEKFPSPPVPGGS (not fully specified (N-terminus); printed as His6-PEG3-SQFEKFPSPPVPGGS); assay: point ELISA; macrocycle on NeutrAvidin plate, His-tagged epitope, anti-His-AP detection
T3 construct: Synthetic; residues N-terminal to C48S scrambled
T3 peptide: SQFEKFPSPPVPGGS

[13] = target: T2, Full-length His-tagged IL-17F protein …; assay: sandwich ELISA; biotinylated macrocycle on NeutrAvidin plate, His-tagged IL-17F titrated, anti-His-AP detection
[14] = target: T4, His6-PEG3-FFQKPESSPPVPGGS (human, not fully specified (N-terminus); printed as His6-PEG3-FFQKPESSPPVPGGS); assay: point ELISA; macrocycle on NeutrAvidin plate, 2 µM His-tagged epitope
T4 construct: Not clear whether the listing entry holds the His6
T4 peptide: FFQKPESSPPVPGGS

[15] = target: T5, His6-PEG3-FFQKPESSPVSPGPG (not fully specified (N-terminus); printed as His6-PEG3-FFQKPESSPVSPGPG); assay: as above
T5 construct: Synthetic; residues C-terminal to C48S scrambled
T5 peptide: FFQKPESSPVSPGPG

[16] = target: T2, Full-length His-tagged IL-17F protein …; assay: binding to His-tagged IL-17F human recombinant protein
[17] = target: T2, Full-length His-tagged IL-17F protein …; assay: binding to His-tagged IL-17F human recombinant protein (ELISA format); reference: the individual PCC macrocycles Cy(RRATSX1X2) and Cy(RSYNKX1X2)
[18] = target: T2, Full-length His-tagged IL-17F protein …; assay: binding to His-tagged IL-17F human recombinant protein (ELISA format); PEG3-linked biligand; binding to His-tagged IL-17F, not in solution
[19] = target: T2, Full-length His-tagged IL-17F protein …; assay: fluorescence polarization in solution; in solution by fluorescence polarization
[20] = target: T2, Full-length His-tagged IL-17F protein …; assay: point ELISA; recombinant human IL-17F against IL-17A
[21] = target: T1, Plasmodium falciparum Histidine Rich …; assay: assay not described; two Cy(YKYYR) PCCs joined by about a 1.5 nm linker

B1: cy(YKYYR)-linker-cy(GWNVDL) (designed binder)
peptide 1: YKYYR
peptide 2: GWNVDL
modifications: not fully specified (bridges); printed as cy(YKYYR)-linker-cy(GWNVDL)
notes: also called The resultant biligand
[1]
  EC50: 0.54 nM
[2]
  fold improvement over the better of the two ligand components: 100 fold

B2: Biotin-PEG3-Cy(RSYNKX1X2) (peptide)
peptide: RSYNK[Lys(N3)][Pra]
modifications: triazole 6-7; not fully specified (N-terminus, bridges); printed as Biotin-PEG3-Cy(RSYNKX1X2); also: no peptide bond X6-X7, Pra is the true N-terminus, Az4 the true C-terminus, Biotin-PEG3 label at N-terminus (on Pra)
notes: also called LF2
[3]
  EC50: 15 nM
[4]
  selectivity for IL-17F over IL-17A: 4 ratio IL-17F:IL-17A
[5]
  Kd: 15 nM
[6]
  Kd: 28 nM

## GWNVDL (not fully specified (bridges); also: cyclic, ring closure not given here, also called cy(GWNVDL)) [cyclic PCC with variable sequence GWNVDL]
[7]
  EC50: 50 nM

## YKYYR (also: cyclic, ring type not given here, also called cyclic YKYYR) [Cy(YKYYR)]
[8]
  EC50: 220 nM

B3: Cy(RRATSX1X2)-PEG3-biotin (peptide)
peptide: RRATS[Lys(N3)][Pra]
modifications: triazole 6-7; not fully specified (C-terminus, bridges); printed as Cy(RRATSX1X2)-PEG3-biotin; also: no peptide bond X6-X7, Pra is the true N-terminus, Az4 the true C-terminus, PEG3-biotin label at C-terminus (on Az4)
notes: Biotin-PEG3 form used on NeutrAvidin plates; also called LF1
[9]
  Kd: 50 nM
[10]
  selectivity for IL-17F over IL-17A: 10 ratio IL-17F:IL-17A
[11]
  selectivity for IL-17F over IL-17A: 2 ratio IL-17F:IL-17A
[12]
  binding result: no binding (tested: 2 µM epitope)
[13]
  EC50: 66 nM
[14]
  binding result: binds
[15]
  binding result: binds

B4: Cy(RRAQSX1X2)-PEG3-biotin (peptide)
peptide: RRAQS[Lys(N3)][Pra]
modifications: triazole 6-7; not fully specified (C-terminus, bridges); printed as Cy(RRAQSX1X2)-PEG3-biotin; also: no peptide bond X6-X7, Pra is the true N-terminus, Az4 the true C-terminus, PEG3-biotin label at C-terminus (on Az4)
[11]
  selectivity for IL-17F over IL-17A: 2 ratio IL-17F:IL-17A
[12]
  binding result: no binding (tested: 2 µM epitope)
[13]
  EC50: 52 nM
[14]
  binding result: binds
[15]
  binding result: binds

B5: Biotin-PEG3-Cy(RSYNKX1X2)-PEG3-Cy(RRATSX1X2) (designed binder)
peptide 1: RSYNK[Lys(N3)][Pra]
peptide 2: RRATS[Lys(N3)][Pra]
modifications: triazole I:6-I:7, II:6-II:7; not fully specified (N-terminus, C-terminus); printed as Biotin-PEG3-Cy(RSYNKX1X2)-PEG3-Cy(RRATSX1X2); also: chain 1 joined to chain 2 through one PEG3 linker, backbone orders Pra-RSYNK-Az4 and Pra-RRATS-Az4, no bonds X6-X7
notes: One covalent molecule: two macrocyclic peptides joined by a single PEGylated amino acid (not a peptide linker), written here as two peptide segments; also called Bi-LF; anti-IL-17F biligand with PEG3 linker
[16]
  fold better binder than the biligands with other linkers: ~10 fold
  times stronger than the other biligands: ≥ 16 fold
[17]
  fold improvement in affinity relative to the individual PCC macrocyclic ligands: > 100 fold
[18]
  Kd: 0.246 nM
[19]
  Kd: 0.252 nM
[20]
  selectivity for IL-17F over IL-17A: 4 ratio IL-17F:IL-17A

B6: linked biligand of two Cy(YKYYR) PCCs (designed binder)
peptide: YKYYR
modifications: not fully specified (bridges)
notes: also called The resultant linked biligand
[21]
  EC50: 20.8 nM

B7: Biotin-PEG3-Cy(KKGWPX1X2) (peptide)
peptide: KKGWP[Lys(N3)][Pra]
modifications: triazole 6-7; not fully specified (N-terminus, bridges); printed as Biotin-PEG3-Cy(KKGWPX1X2); also: no peptide bond X6-X7, Pra is the true N-terminus, Az4 the true C-terminus, Biotin-PEG3 label at N-terminus (on Pra)
[3]
  EC50: 24 nM
[4]
  selectivity for IL-17F over IL-17A: 4 ratio IL-17F:IL-17A
